Data as given in PMC3032006.
Like-named read-outs stand apart in the source and are kept apart here.

Tests used:
Assay in all cases: AUC
[1] = target: myr(+)MACA-W184A/M185A (HIV-1 (pNL4-3 isolate))
[2] = target: myr(+)MACA-W184A/M185A (HIV-1 (pNL4-3 isolate)); remark: listed apart in the source
[3] = target: myristoylated HIV-1 matrix-capsid, myr(+)MACA (HIV-1 (pNL4-3 isolate))
[4] = target: myristoylated HIV-1 matrix-capsid, myr(+)MACA (HIV-1 (pNL4-3 isolate)); remark: listed apart in the source
[5] = target: myristoylated HIV-1 matrix-capsid, myr(+)MACA (HIV-1 (pNL4-3 isolate)); remark: listed apart in the source
[6] = target: myristoylated HIV-1 matrix-capsid, myr(+)MACA (HIV-1 (pNL4-3 isolate)); remark: listed apart in the source
[7] = target: unmyristoylated HIV-1 matrix-capsid, myr(−)MACA (HIV-1 (pNL4-3 isolate))
[8] = target: unmyristoylated HIV-1 matrix-capsid, myr(−)MACA (HIV-1 (pNL4-3 isolate)); remark: listed apart in the source
[9] = target: unmyristoylated HIV-1 matrix-capsid, myr(−)MACA (HIV-1 (pNL4-3 isolate)); remark: listed apart in the source
[10] = target: myristoylated HIV-1 matrix protein, myr(+)MA (HIV-1)
[11] = target: myristoylated HIV-1 matrix protein, myr(+)MA (HIV-1); remark: listed apart in the source
[12] = target: myristoylated HIV-1 matrix protein, myr(+)MA (HIV-1); remark: listed apart in the source

myr(+)MACA-W184A/M185A (domain or fragment)
stoichiometry N [1]: 2
stoichiometry N [2]: 2

myristoylated HIV-1 matrix-capsid, myr(+)MACA (domain or fragment)
Ka [3]: 33000 M⁻¹
fraction in the 4.3S (major) peak of c(s) [3]: 70%
stoichiometry N [3]: 2
stoichiometry N [4]: 3
stoichiometry N [5]: 3
stoichiometry N [6]: 3

unmyristoylated HIV-1 matrix-capsid, myr(−)MACA (domain or fragment)
stoichiometry N [7]: 2
Ka [8]: 110000 M⁻¹
stoichiometry N [8]: 2
Ka [9]: 33000 M⁻¹
stoichiometry N [9]: 2

myristoylated HIV-1 matrix protein, myr(+)MA (natural protein)
fraction in the 2.4S (trimer) peak of c(s) [10]: 30%
stoichiometry N [10]: 3
stoichiometry N [11]: 3
stoichiometry N [12]: 3
